According to patent US20240240189A1, “CANCER TREATMENT BY TARGETING PROTEINS OR INTERACTIONS OF EPHRINB-RGS3-KIF20A-SEPT7 AXIS” (CITY OF HOPE, priority 2021, published 2024):
Entries after “also recorded” stand apart in the source; their conditions may differ.

What was measured:
human KIF20A transcript = test: shRNA screening by dual luciferase reporter assay; format: cell-based; settings: transfected HEK293 cells, shRNA in pNUT vector, cDNA target in psi-CHECK, 48 hours
Procedure: FIGS. 10a-10c show generation of human KIF20A shRNAs and stable Daoy cell lines. […] Candidate shRNAs in pNUT vector were first screened with a cDNA target cloned in psi-CHECK vector in transfected HEK293 cells, using a dual luciferase reporter assay and their cDNA target in psi-CHECK Vector (Promega). Six candidate shKIF20As were tested with this assay. […] Data are mean±S.D. **P<0.01, ***P<0.001 (two-way ANOVA).
DNA Constructs, Lentivirus Production: Lentiviral transfer plasmids used in this study include: Hiv7CMV-Cre-myc-2A-GFP (Addgene #117148), Hiv7CMV-GFP, Hiv7CMV-GFP-IRES-Luciferase, as well as Tet-on inducible shRNA plasmids Tet-pLKO-hushKIF20A726 or Tet-pLKO-hushKIF20A181-Puro (shRNA sequences were cloned into pLKO-Tet-On plasmid, Addgene #21915 at Agel/EcoRI sites). […]
shRNA design and screening: Potential shRNA sequences were selected using web-based design tool (rnaidesigner.thermofisher.com/rnaiexpress/design.do). shRNAs were expressed under the control of a mouse U6 promoter in pNUTs vector which additionally contains a ubiquitin promoter-EGFP expression cassette. Candidate shRNAs in pNUTs and cDNA target in psi-CHECK were co-transfected into HEK293 cells in triplicates; 48 hours later, the firefly and Renilla Luciferase values were determined with Promega's Dual-Luciferase® Reporter Assay System (Promega, E1910). […]

Daoy human MB cells = test: Growth assay of Daoy cells; format: cell-based; settings: parental Daoy cells with or without doxycycline
Procedure: Generation of Daoy cell lines with stably integrated Tet-on inducible shRNA expression system: Daoy cells were infected with lentivirus of Tet-on inducible human KIF20A shRNA-726 and GFP-Luciferase prepared from Tet-pLKO-hushKIF20A726 plasmid and Hiv7CMVGFP-IRES-Luciferase plasmid, respectively. The transduced Daoy cells were selected for stable single clones with Puromycin (1 μg/ml, Sigma-Aldrich) and GFP fluorescence signal in DMEM (Invitrogen) with 10% fetal bovine serum. Single clones were picked up by glass cloning cylinders (Sigma-Aldrich) in 10 cm plate.
Growth Assay of tumor cells: Mouse MB cell lines, or Daoy clones stably integrated with Tet-on inducible human KIF20A shRNA-726, or Wild Type Daoy cells, were seeded into multiple wells of 24 well plates (2×10^4 or 1×10^4 cells per well). Cells in quadruplicate were then dissociated and counted using a hemocytometer at consecutive days after initial plating.

GISC017 cells = test: Cell cycle exit analysis (EdU/Ki67) in GISC017 cells; format: cell-based, human; settings: lentiviral expression of RBD
Source text: To further investigate the relevance of KIF20A in human brain tumors, inhibition of KIF20A in patient-derived GBM-initiating/stem cells (GISCs) was examined. As the ERKS axis functions in different types of brain tumor-initiating/stem cells, data obtained from study of GISCs would be applicable to other brain tumor cell types. Multiple lines of patient-derived GISCs were obtained from Dr. Christine Brown. These low passaged GISCs could be expanded in cultures and could engraft in NSG mice^43, 44. FIG. 11 summarizes the results of testing KIF20A in one GISC line (GISC017) by constitutive expression of a control scrambled shRNA or shKIF20A726 (shRNA targeting hKIF20A) in pNUT vector-based lentiviral expression system. […] In the above cell cycle exit analysis, co-staining of differentiation markers (e.g. βlll-tubulin, DCX, or NeuN) was performed, however, these markers were detected in EdU^+Ki67^− (cells having left the cell cycle) but also in some EdU^+Ki67^+ (cells staying in the cell cycle) cells, which might reflect a technical artefact observed with progenitor/stem cells in culture. […]

RGS3-KIF20A interaction = target: T1, RGS3-KIF20A interaction (Mus musculus, UniProt Q9DC04); test: GST-RGS pulldown experiment; format: binding; settings: expression of RBD, GST-RGS pull down
T1 construct: mediated by the RGS domain of RGS3

[1] = tested on: neural progenitor cells (NPCs); test: In utero electroporation over-expression in the mouse cortex; format: in vivo; settings: expression plasmid delivered at E13.5 via IUE, brains collected at E15.5
Source text: Expression plasmid of GFP, RBD (RGS-binding domain of mouse KIF20A), or RGS was delivered into the cortices at E13.5 via in utero electroporation (IUE). Brains were collected at E15.5 for analyses. Distribution of transfected cells (GFP+) across the radial domains were scored. […] VZ, ventricular zone; IZ, intermediate zone; CP, cortical plate. Green and blue asterisks indicate P<0.01 (Student's t-test) for CP and SVZ/VZ distributions, respectively.
RGS3-KIF20A interaction is mediated by the RGS domain of RGS3 and the RGS-binding domain (RBD) of KIF20A which is located to amino acids 625-818 of mouse KIF20A sequence (FIG. 13a)^9. […] In this experiment, expression plasmid of GFP, RBD (RGS-binding domain of KIF20A), or RGS was delivered into the cortices at E13.5 via IUE. Brains were collected at E15.5 for analyses. Distribution of transfected cells (GFP+) across the radial domains were scored.

SEPT7 = target: T2, SEPT7 (Mus musculus, UniProt O55131); settings: cited from earlier work
T2 sequence (O55131 1-436): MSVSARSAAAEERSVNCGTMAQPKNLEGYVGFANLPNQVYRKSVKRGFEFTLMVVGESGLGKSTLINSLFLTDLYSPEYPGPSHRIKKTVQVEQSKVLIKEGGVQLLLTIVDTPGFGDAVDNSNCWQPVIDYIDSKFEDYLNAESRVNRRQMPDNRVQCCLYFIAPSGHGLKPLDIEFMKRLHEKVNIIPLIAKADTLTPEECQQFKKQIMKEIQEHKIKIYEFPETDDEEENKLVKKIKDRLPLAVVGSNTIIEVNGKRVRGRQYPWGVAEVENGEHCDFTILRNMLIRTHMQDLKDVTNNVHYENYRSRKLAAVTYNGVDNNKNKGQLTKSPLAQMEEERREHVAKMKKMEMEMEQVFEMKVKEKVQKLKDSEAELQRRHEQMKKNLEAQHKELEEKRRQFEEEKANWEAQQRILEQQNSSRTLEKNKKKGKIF

T1 sequence (Q9DC04 841-966 limits assumed): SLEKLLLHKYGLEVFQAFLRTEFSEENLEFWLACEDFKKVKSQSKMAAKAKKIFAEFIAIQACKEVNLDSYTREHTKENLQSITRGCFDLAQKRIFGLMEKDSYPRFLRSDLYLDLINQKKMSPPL

In the case of “5′-AGTATGGAGAAGGTGAAAG-TTCAAGAGA-CTTTCACCTTCTCCATACT-3′ (AGTATGGAGAAGGTGAAAGTTCAAGAGACTTTCACCTTCTCCATACT; expressed or natural sequence) [shKIF20A181, shRNA targeting human KIF20A transcript]”, the “inhibition of expression of the human KIF20A transcript (luciferase assay)” value (human KIF20A transcript) is reported as “significantly inhibit expression of the human KIF20A transcript”.

For `C[C@H]1c2cccc(O)c2C(=O)C2=C(O)[C@]3(O)C(=O)C(C(N)=O)=C(O)[C@@H](N(C)C)[C@@H]3[C@@H](O)[C@@H]21` [doxycycline, reference compound], the “growth of parental Daoy cells (cytotoxicity of doxycycline)” value (Daoy human MB cells) was “not affected”.

B1: RBD: RGS-binding domain of KIF20A, amino acids 625-818 of mouse KIF20A sequence; competitive inhibitor for RGS3-KIF20A interaction (protein)
chain: LKILKESLTTFYQEQIQERDEKIEELETLLQEAKQQPAAQQSGGLSLLRRSQRLAASASTQQFQEVKAELEQCKTELSSTTAELHKYQQVLKPPPPAKPFTIDVDKKLEEGQKNIRLLRTELQKLGQSLQSAERACCHSTGAGKLRQALTNCDDILIKQNQTLAELQNNMVLVKLDLQKKAACIAEQYHTVLKL
modifications: left off: small tags and cut ends
For B1, the cell cycle exit (GISC017 cells) was “induce cell cycle exit; also recorded: caused cell cycle exit”, the “inhibition of binding of GST-RGS and KIF20A” value (RGS3-KIF20A interaction) was “inhibited binding between RGS3 and mouse KIF20A” and the “inhibition of binding of GST-RGS and KIF20A” value (RGS3-KIF20A interaction; listed as Flag-RBD) was “inhibited binding of GST-RGS and KIF20A in a dose dependent manner”. The “inhibition of binding of GST-RGS and KIF20A” value (RGS3-KIF20A interaction; listed as KIF20A625-818) was “block interaction between KIF20A and RGS3”, the “neuronal differentiation of neural progenitor cells” value [1] was “caused precocious neuronal differentiation of the affected NPCs; also recorded: caused neural progenitor cell differentiation and subsequent outward migration of newly born neurons into the IZ and CP regions” and the “neuronal differentiation of neural progenitor cells” value ([1]; listed as KIF20A625-818) was “cause neuronal differentiation”. The “interaction with SEPT7” value (SEPT7) was “interacts with SEPT7”.
